T1: CD81 (UniProt P60033 1-236, limits assumed)
T1 construct: whole, on cells; also called CD81 receptor
T1 sequence (looked up): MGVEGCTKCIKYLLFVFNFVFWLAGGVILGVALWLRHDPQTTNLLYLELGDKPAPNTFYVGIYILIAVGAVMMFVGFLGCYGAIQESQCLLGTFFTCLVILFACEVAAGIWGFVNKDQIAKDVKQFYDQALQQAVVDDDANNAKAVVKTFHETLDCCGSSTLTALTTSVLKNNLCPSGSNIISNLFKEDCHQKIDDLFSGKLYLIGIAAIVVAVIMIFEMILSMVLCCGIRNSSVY

B1: CD81K13 HC 5b-hVH_1_69 / LC 04-hVK_1_9 (antibody, V domains shown)
VH: QVQLVQSGAELVKPGSSVKVSCKASGFNFKDSYLHWVRQAPGQGLEWMGRIDTGNGNVKFDPKFQGRVTITTDESTSTAYMELSSLRSEDTAVYYCVPYGYGFHSWGQGTLVTVSS
VL: DIQLTQSPSFLSASVGDRVTITCRASENIYRTLAWYQQKPGKAPKLLIYAATTLASGVPSRFSGSGSGTEFTLTISSLQPEDFGTYYCQHFWGTPWTFGQGTKVEIK
notes: human constant region
B2: CD81K13 HC 5b-hVH_1_69 / LC 5b-hVK_1_39 (antibody, V domains shown)
VH: QVQLVQSGAELVKPGSSVKVSCKASGFNFKDSYLHWVRQAPGQGLEWMGRIDTGNGNVKFDPKFQGRVTITTDESTSTAYMELSSLRSEDTAVYYCVPYGYGFHSWGQGTLVTVSS
VL: DIQMTQSPSSLSASVGDRVTITCRASENIYRTLAWYQQKPGKAPKLLIYGATTLADGVPSRFSGSGSGTDFTLTISSLQPEDFATYYCQHFWGTPWTFGQGTKVEIK
notes: human constant region
B3: CD81K13 HC 5b-hVH_1_69-GA / LC 07-hVK_1_27 (antibody, V domains shown)
VH: QVQLVQSGAELVKPGSSVKVSCKASGFNFKDSYLHWVRQAPGQGLEWMGRIDTGNGNVKFDPKFQGRVTITTDESTSTAYMELSSLRSEDTAVYYCVPYGYGFHSWGQGTLVTVSS
VL: DIQMTQSPSSLSASVGDRVTITCRASENIYRTLAWYQQKPGKVPKLLIYAATTLASGVPSRFSGSGSGTDFTLTISSLQPEDVGTYYCQKFWGTPWTFGQGTKVEIK
notes: human constant region
B4: CD81K13 HC 5b-hVH_1_69 / LC 07-hVK_1_27 (antibody, V domains shown)
VH: QVQLVQSGAELVKPGSSVKVSCKASGFNFKDSYLHWVRQAPGQGLEWMGRIDTGNGNVKFDPKFQGRVTITTDESTSTAYMELSSLRSEDTAVYYCVPYGYGFHSWGQGTLVTVSS
VL: DIQMTQSPSSLSASVGDRVTITCRASENIYRTLAWYQQKPGKVPKLLIYAATTLASGVPSRFSGSGSGTDFTLTISSLQPEDVGTYYCQKFWGTPWTFGQGTKVEIK
notes: human constant region
B5: CD81K13 HC 5b-hVH_1_69-GA / LC 04-hVK_1_9 (antibody, V domains shown)
VH: QVQLVQSGAELVKPGSSVKVSCKASGFNFKDSYLHWVRQAPGQGLEWMGRIDTGNGNVKFDPKFQGRVTITTDESTSTAYMELSSLRSEDTAVYYCVPYGYGFHSWGQGTLVTVSS
VL: DIQLTQSPSFLSASVGDRVTITCRASENIYRTLAWYQQKPGKAPKLLIYAATTLASGVPSRFSGSGSGTEFTLTISSLQPEDFGTYYCQHFWGTPWTFGQGTKVEIK
notes: human constant region
B6: CD81K13 HC 5b-hVH_1_69-GA / LC 03-hVK_1_9 (antibody, V domains shown)
VH: QVQLVQSGAELVKPGSSVKVSCKASGFNFKDSYLHWVRQAPGQGLEWMGRIDTGNGNVKFDPKFQGRVTITTDESTSTAYMELSSLRSEDTAVYYCVPYGYGFHSWGQGTLVTVSS
VL: DIQLTQSPSFLSASVGDRVTITCRASENIYRTLAWYQQKPGKAPKLLIYAATTLASGVPSRFSGSGSGTEFTLTISSLQPEDFATYYCQHFWGTPWTFGQGTKVEIK
notes: human constant region
B7: CD81K13 HC 5b-hVH_1_69-GA / LC 06-hVK_1_39 (antibody, V domains shown)
VH: QVQLVQSGAELVKPGSSVKVSCKASGFNFKDSYLHWVRQAPGQGLEWMGRIDTGNGNVKFDPKFQGRVTITTDESTSTAYMELSSLRSEDTAVYYCVPYGYGFHSWGQGTLVTVSS
VL: DIQMTQSPSSLSASVGDRVTITCRASENIYRTLAWYQQKPGKAPKLLIYAATTLASGVPSRFSGSGSGTDFTLTISSLQPEDFGTYYCQHFWGTPWTFGQGTKVEIK
notes: human constant region
B8: CD81K13 HC 5b-hVH_1_69 / LC 5b-hVK_1_39-GA (antibody, V domains shown)
VH: QVQLVQSGAELVKPGSSVKVSCKASGFNFKDSYLHWVRQAPGQGLEWMGRIDTGNGNVKFDPKFQGRVTITTDESTSTAYMELSSLRSEDTAVYYCVPYGYGFHSWGQGTLVTVSS
VL: DIQMTQSPSSLSASVGDRVTITCRASENIYRTLAWYQQKPGKAPKLLIYGATTLADGVPSRFSGSGSGTDFTLTISSLQPEDFATYYCQHFWGTPWTFGQGTKVEIK
notes: human constant region
B9: CD81K13 HC 06-hVH_1_3 / LC 03-hVK_1_9 (antibody, V domains shown)
VH: QVQLVQSGAEVKKPGASVKVSCKASGYTFKDSYLHWVRQAPGQRLEWMGRIDTGNGNVKFDPKFQGRVTITTDTSASTAYMELSSLRSEDTAVYYCAPYGYGFHSWGQGTLVTVSS
VL: DIQLTQSPSFLSASVGDRVTITCRASENIYRTLAWYQQKPGKAPKLLIYAATTLASGVPSRFSGSGSGTEFTLTISSLQPEDFATYYCQHFWGTPWTFGQGTKVEIK
notes: human constant region
B10: CD81K13 HC 5b-hVH_1_69 / LC 06-hVK_1_39 (antibody, V domains shown)
VH: QVQLVQSGAELVKPGSSVKVSCKASGFNFKDSYLHWVRQAPGQGLEWMGRIDTGNGNVKFDPKFQGRVTITTDESTSTAYMELSSLRSEDTAVYYCVPYGYGFHSWGQGTLVTVSS
VL: DIQMTQSPSSLSASVGDRVTITCRASENIYRTLAWYQQKPGKAPKLLIYAATTLASGVPSRFSGSGSGTDFTLTISSLQPEDFGTYYCQHFWGTPWTFGQGTKVEIK
notes: human constant region
B11: CD81K13 HC 06-hVH_1_3 / LC 04-hVK_1_9 (antibody, V domains shown)
VH: QVQLVQSGAEVKKPGASVKVSCKASGYTFKDSYLHWVRQAPGQRLEWMGRIDTGNGNVKFDPKFQGRVTITTDTSASTAYMELSSLRSEDTAVYYCAPYGYGFHSWGQGTLVTVSS
VL: DIQLTQSPSFLSASVGDRVTITCRASENIYRTLAWYQQKPGKAPKLLIYAATTLASGVPSRFSGSGSGTEFTLTISSLQPEDFGTYYCQHFWGTPWTFGQGTKVEIK
notes: human constant region
B12: CD81K13 HC 5b-hVH_1_69 / LC 05-hVK_1_39 (antibody, V domains shown)
VH: QVQLVQSGAELVKPGSSVKVSCKASGFNFKDSYLHWVRQAPGQGLEWMGRIDTGNGNVKFDPKFQGRVTITTDESTSTAYMELSSLRSEDTAVYYCVPYGYGFHSWGQGTLVTVSS
VL: DIQMTQSPSSLSASVGDRVTITCRASENIYRTLAWYQQKPGKAPKLLIYAATTLASGVPSRFSGSGSGTDFTLTISSLQPEDFATYYCQHFWGTPWTFGQGTKVEIK
notes: human constant region
B13: CD81K13 HC 5b-hVH_1_69-GA / LC 5b-hVK_1_39-GA (antibody, V domains shown)
VH: QVQLVQSGAELVKPGSSVKVSCKASGFNFKDSYLHWVRQAPGQGLEWMGRIDTGNGNVKFDPKFQGRVTITTDESTSTAYMELSSLRSEDTAVYYCVPYGYGFHSWGQGTLVTVSS
VL: DIQMTQSPSSLSASVGDRVTITCRASENIYRTLAWYQQKPGKAPKLLIYGATTLADGVPSRFSGSGSGTDFTLTISSLQPEDFATYYCQHFWGTPWTFGQGTKVEIK
notes: human constant region
B14: CD81K13 HC 5b-hVH_1_69-GA / LC 05-hVK_1_39 (antibody, V domains shown)
VH: QVQLVQSGAELVKPGSSVKVSCKASGFNFKDSYLHWVRQAPGQGLEWMGRIDTGNGNVKFDPKFQGRVTITTDESTSTAYMELSSLRSEDTAVYYCVPYGYGFHSWGQGTLVTVSS
VL: DIQMTQSPSSLSASVGDRVTITCRASENIYRTLAWYQQKPGKAPKLLIYAATTLASGVPSRFSGSGSGTDFTLTISSLQPEDFATYYCQHFWGTPWTFGQGTKVEIK
notes: human constant region
B15: CD81K13 HC 5b-hVH_1_69-GA / LC 5b-hVK_1_39 (antibody, V domains shown)
VH: QVQLVQSGAELVKPGSSVKVSCKASGFNFKDSYLHWVRQAPGQGLEWMGRIDTGNGNVKFDPKFQGRVTITTDESTSTAYMELSSLRSEDTAVYYCVPYGYGFHSWGQGTLVTVSS
VL: DIQMTQSPSSLSASVGDRVTITCRASENIYRTLAWYQQKPGKAPKLLIYGATTLADGVPSRFSGSGSGTDFTLTISSLQPEDFATYYCQHFWGTPWTFGQGTKVEIK
notes: human constant region

The record followed here is patent US20200377590A1 (Hoffmann-La Roche, published 2020).
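Further: antibody binding to HuH7 cells expressing CD81 versus a CD81-negative HuH7 control line, bound antibody detected by secondary reagent, absorbance at 450 nm with 620 nm reference.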

This test has as its target T1, CD81. The test is described as follows: cell ELISA. (ELISA stands for enzyme-linked immunosorbent assay.)
Procedure: For the binding cell ELISA assay, HuH7-Rluc-H3 (positive cell line expressing CD81) and HuH7-Rluc-L1 (negative control cell line) were propagated in F-12 DMEM medium with 10% FCS at 37° C. and 5% CO₂. On day 1, the cells were trypsinized at approximately 90% confluence and resuspended at 4×10⁵ cells/mL. […] On day 2, the antibody samples to be tested were prepared in a separate polypropylene round bottom plate with a twofold desired concentration with a final volume of 120 μl. All of the assay samples were diluted in cell culture medium. […] After fixation, each well was washed 3 times with 200 μL PBS/0.05% Tween. The secondary incubation step for detection of bound anti-CD81 antibodies was performed for 2 h at room temperature on a reciprocal shaker. […] Each well was washed three times with 200 μL PBS/0.05% Tween to remove unbound antibodies. […] The absorbance was read using the ELISA Tecan reader at 450 nm with 620 nm reference wavelength.
B1 gave an ELISA data of 0.695.

B2 came in with an ELISA data of 0.463.

For the molecule B3, the ELISA data was found to be 0.11.

Consider B4, for which the ELISA data was 0.114.

Turning to B5, the ELISA data is 0.786.

Molecule B6 showed an ELISA data of 0.788.

B7 showed an ELISA data of 0.528.

B8 showed an ELISA data of 0.646.

In turn, B9 displayed an ELISA data of 0.352.

Molecule B10 came in with an ELISA data of 0.522.

With B11, the ELISA data is 0.371.

With B12, the ELISA data was found to be 0.905.

The molecule B13 returned an ELISA data of 0.684.

Turning to B14, the ELISA data turned out to be 0.858.

The molecule B15 yielded an ELISA data of 0.737.
